Assay results: US20030158387A1
Like-named read-outs stand apart in the source and are kept apart here. One block for each binder: values may come before it. *: point of attachment. Nonanoyl = CCCCCCCCC(=O)*

Assays:
[1] = biological target: chemokine receptor 1 (CCR1) (UniProt P56482); test: competition radioligand binding on CCR1 (assay not given)
[2] = biological target: chemokine receptor 1 (CCR1) (UniProt P56482)
[3] = biological target: chemokine receptor 1 (CCR1) (UniProt P56482); remark: listed apart in the source
[4] = biological target: chemokine receptor 1 (CCR1) (UniProt P56482); test: competition radioligand binding, membranes of CHO-K1 cells expressing CCR1, tracer [125I]-MIP-1 alpha
[5] = biological target: chemokine receptor 1 (CCR1) (UniProt P56482); test: as above; remark: listed apart in the source
[6] = biological target: chemokine receptor 1 (CCR1) (UniProt P56482); remark: listed apart in the source
[7] = biological target: chemokine receptor 5 (CCR5) (human), P51681; test: competition radioligand binding, membranes of CHO-K1 cells expressing CCR5, tracer [125I]-MIP-1 beta; conditions: remark: other sources report otherwise
Sequence of chemokine receptor 5 (CCR5) (human), P51681 (P51681 whole entry): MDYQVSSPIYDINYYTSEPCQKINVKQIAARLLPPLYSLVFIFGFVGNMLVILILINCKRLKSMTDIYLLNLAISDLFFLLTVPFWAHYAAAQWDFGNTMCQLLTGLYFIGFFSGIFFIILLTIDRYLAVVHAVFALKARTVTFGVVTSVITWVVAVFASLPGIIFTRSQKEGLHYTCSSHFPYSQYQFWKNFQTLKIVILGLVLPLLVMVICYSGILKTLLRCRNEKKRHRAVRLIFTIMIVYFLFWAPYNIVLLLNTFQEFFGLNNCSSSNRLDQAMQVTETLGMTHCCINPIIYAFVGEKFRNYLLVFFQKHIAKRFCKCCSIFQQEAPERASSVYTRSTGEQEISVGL

[8] = biological target: chemokine receptor 5 (CCR5) (human), P51681; test: competition radioligand binding, membranes of CHO-K1 cells expressing CCR5, tracer [125I]-MIP-1 beta; mean ± SEM; conditions: remark: other sources report otherwise
[9] = biological target: chemokine receptor 1 (CCR1) (UniProt P56482); test: cell-based or functional assay
[10] = biological target: chemokine receptor 1 (CCR1) (UniProt P56482); test: competition with 125I-RANTES for binding to CCR1
[11] = biological target: chemokine receptor 1 (CCR1) (UniProt P56482); test: competition with 125I-RANTES, membranes of CHO-K1 cells expressing CCR1, filtration, one site competition model; 125I-Rantes tracer, CCR1 membranes

B1: full size human chemokine HCC-1 (residues 1-74) (ligand)
chain: TKTESSSRGPYHPSECCFTYTTYKIPRQRIMDYYETNSQCSKPGIVFITKRGHSVCTNPSDKWVQDYIKDMKEN
- Ki [1]: 100 nM

B4: HCC-1[10-74] (ligand)
chain: PYHPSECCFTYTTYKIPRQRIMDYYETNSQCSKPGIVFITKRGHSVCTNPSDKWVQDYIKDMKEN
- EC50 (aequorin luminescence, CHO-K1 cells expressing CCR1) [2]: 4.32 nM
- EC50 (read off the curve) [3]: 3 nM
- IC50 (read off the curve) [4]: 0.2 nM
- IC50 (read off the curve) [5]: 0.1 nM

B5: HCC-1[12-74] (ligand)
chemokine chain: HPSECCFTYTTYKIPRQRIMDYYETNSQCSKPGIVFITKRGHSVCTNPSDKWVQDYIKDMKEN
- IC50 (read off the curve) [4]: 40 nM

B6: HCC-1[8-74] (ligand)
chain: RGPYHPSECCFTYTTYKIPRQRIMDYYETNSQCSKPGIVFITKRGHSVCTNPSDKWVQDYIKDMKEN
- EC50 (aequorin luminescence, CHO-K1 cells expressing CCR1) [2]: 35.2 nM

B7: NNY-HCC-1[10-74] (nonanoyl-HCC-1[10-74]) (ligand)
chain: Nonanoyl-PYHPSECCFTYTTYKIPRQRIMDYYETNSQCSKPGIVFITKRGHSVCTNPSDKWVQDYIKDMKEN
modifications: ends and bridges not checked
- EC50 (aequorin luminescence, CHO-K1 cells expressing CCR1) [2]: 5.9 nM
- EC50 (read off the curve) [6]: 4 nM
- IC50 (read off the curve) [5]: 0.1 nM

B9: RANTES, P13501 24-91 (ligand, UniProt P13501 24-91, looked up)
chain: SPYSSDTTPCCFAYIARPLPRAHIKEYFYTSGKCSNPAVVFVTRKNRQVCANPEKKWVREYINSLEMS
modifications: ends and bridges not checked; also: 125I-labelled where used as tracer, unlabelled in functional assays
- IC50 (read off the curve) [7]: 0.1 nM
- IC50 [8]: 0.116 nM

Next, values leading:

- EC50 (aequorin luminescence, CHO-K1 cells expressing CCR1) [2]: 262 nM
B2: HCC-1, residues 6-74 (ligand)
chain: SSRGPYHPSECCFTYTTYKIPRQRIMDYYETNSQCSKPGIVFITKRGHSVCTNPSDKWVQDYIKDMKEN

- EC50 (aequorin luminescence, CHO-K1 cells expressing CCR1) [2]: 218 nM
B3: HCC-1[7-74] (ligand)
chain: SRGPYHPSECCFTYTTYKIPRQRIMDYYETNSQCSKPGIVFITKRGHSVCTNPSDKWVQDYIKDMKEN

- EC50 (aequorin luminescence, CHO-K1 cells expressing CCR1) [2]: 40.3 nM
B8: HCC-1[11-74] (ligand)
chain: YHPSECCFTYTTYKIPRQRIMDYYETNSQCSKPGIVFITKRGHSVCTNPSDKWVQDYIKDMKEN

- EC50 (aequorin luminescence, CHO-K1 cells expressing CCR1) [2]: 2.62 nM
- EC50 (read off the curve) [3]: 2 nM
- EC50 of receptor activation (aequorin assay) [9]: 2.8 nM
- Ki [10]: 0.023 nM
- IC50 (read off the curve) [4]: 0.2 nM
- IC50 [11]: 2.3 nM
B10: processed human chemokine PHC-1 (HCC-1[9-74]) (ligand)
chain: GPYHPSECCFTYTTYKIPRQRIMDYYETNSQCSKPGIVFITKRGHSVCTNPSDKWVQDYIKDMKEN
